In the DeepSol protein solubility set:

Assay: soluble on expression in E. coli; label from the status in PepcDB or PDB records

Row | Sequence | soluble on expression in E. coli
1 | MSLTTLTTALKAGPEAPAILHRCRELVAPALAEAVGGMHPWMREMADYALGRGAAGGAPAAHSQGKGVRQALAVLGAEAAGGPAEAGVPAAVAVELVHTFSLLHDDIMDGDAMRRGRPALWKAYGTGPAVLAGDALFALAVQTLTTASAPGAAHRLSAALGDLVRGQADDLLFAHRPWTGPEAVSVAEYEAMAEHKTGSLLGCALALGAHLAGAPEETAAVLDRTGRHLGVAFQIVDDLLGIWGDPAVTGKPVHGDLRQGKKTFPVLAALATPSGSALEGLLTARDDTAVVRAAAVVEQAGGRSAALREARRHLTVAHGLLASVQPAPRPAADLRTLLSALSRRTIEGHHHHHH | soluble
2 | MGSDKIHHHHHHMSIKSGFVALAGKPNVGKSTFINAVMGRKVVIVSDKPQTTRNRINCIYTDKDSQIIFVDTPGIHKPLHRLGEYMVKAAVQALKGVDLVLFMLDAADGFTKTDEHVAKIVNDSGTKTIIAVNKIDVAGEEKAKAVGELAKSMVENVVSVHYISALKGEGVFEVLEKIKEELPEGPQYYPEDMVTDRPLSFMAAEIIREKIFHLTRQEVPHSTAVVIEEIKDRPNGVLYIRANIYVERDSQKGILIGKNGSMIKKIGTLAREELEFLVGRKVYLDLNVKVKEKWREKDFIILQEIGLKDDIK | not soluble
3 | MSLTRNRTVALAIIDMQNDFVLPGAPACVEGAMGTVPVIAGLLAKARAEGWMVLHVVRAHRADGSDAEKSREHLFLEGGGLCVAGTPGAEIVAGLEPASGETVLVKTRFSAFMGTECDMLLRRRGVDTLLVSGTQYPNCIRGTAVDAFALDYDVVVVTDACSARTPGVAESNINDMRAMGITCVPLTALDDVLARRPVPSGPPPREGHHHHHH | soluble
4 | MGSDKIHHHHHHMRTDMTIEQNKNRRSAASGCAIHCHDCSMGTLCIPFTLNANELDQLDDIIERKKPIQKGEQIFKSGDPLKSLFAIRSGTIKSYTITEQGDEQITGFHLAGDVIGFDGIHAQSHQSFAQALETSMVCEIPFNILDELSGTMPKLRQQIMRLMSNEIMSDQEMILLLSKKNAEERLAAFISNLANRFGNRGFSAKEFRLTMTRGDIGNYLGLTVETISRLLGRFQKSGLIEVKGKYIIIVDHHELNLLAGNARIAR | not soluble
5 | MSHGDQLEQYQDQYFDCIKKYDMPAALEVLELIAESCIELNDDDPLIEACERGASYLKCCLKYENLVNLHASQKINDHTLFFLNLEVRRRSTYQCFATTRSFLTPHRKRQLAKTMNAEPRIFAFGLNANNNLGVDTVQSALVDVPTEIYVPPVYEMKMSNFHSVFWCHDGKFFGCGETKNFMISKPDSELPRIVKFPMELDIQIWRNEMIVGIKALENGTLFQTDRRLYFVGDYQKSKAYLKTFHDEEFDMVTQLPYATPNFWITQSRPVSSISAYKLDDKKNVTILRVKSVSYWIQVYPDYWTELNPGYIKKRPVVYLLDDVEVKNIRIETVGCNIIYVVHELTLYFGKMTMTMVENSDGDENNLDNYILFVELHEYRTRSPYLCTGVATNKAQGVLMKCGDFPCVGFDYLEIAENRFRGNVQKYMFETVEKFMESYDVFENDEVSMDYLLSETEKAFNSGVMEQEIKLDWLGRTEKKYRYSNFYSFLGYVSQPRLLTGPPKCFTTDIDTLLTYKDPKLVARHRMKQLFEEFERVNYPGTDVWKPTGFLKSHDIPEEDNLSEGRYRSAAMKWCVNEFMEQFNVYRENPVFNPDNLVYKEILKYLINVIWYALDQWIIITEKTENDRVAPLLREIEHKVPDDEILFQTVYPEKILENRLREGSLKMEDLPEPLNIRVTFLLRHRDPKLKPTRFNLNTCRTFFNFLYPALEDFIDENNVLDLNKLYPDDVAIHRLIAQTYFVGHGLTDLEGSEKYDRSVYDSKGVRLEPMVRFMRKGREHFRGFLRRVPSTSAPGDGPIVFPTADHQAFFKMQRVLYSRLPLTEKLPIDIEDDLYSAAIVGLQDKRVLEVLTMDEKLRILEWYEKAKMPEALMDLLKQCIIESTSKNYYHIRYLFSQYPIMTQRFIAQYRPGIILWHRSPIPNPQIHHVRIITEMWPKNDFERTTRIPRKKFIKNGIVEDSKFYMIGSYLRRDAYKDIHYPAQKTTKLTELFNIDFPVNGPKKSKNQMMLITFPSREIVEEEEPPQEAEQSPSPDPEKIAKRREELRKKIAEKLAASKKKKKR | not soluble
6 | MSEESNDDKKPTTKFELERETELRFEVEASQSVQLELLAGMAEIFGTELTRNKKFTFDAGAKVAVFTWHGCSLQLSGRTEVAYVSKDTPMLLYLNTHTALEQMRRQAEKEEERGPRVMVVGPTDVGKSTVCRLLLNYAVRLGRRPTYVELDVGQGSVSIPGTMGALYIERPADVEEGFSIQAPLVYHFGSTTPGTNIKLYNKITSRLADVFNQRCEVNRRASVSGCVINTCGWVKGYGYQALVHAASAFEVDVVVVLDQERLYNELKRDLPHFVRTVLLPKSGGVVERSKDFRRECRDERIREYFYGFRGCFYPHAFNVKFSDVKIYKVGAPTIPDSCLPLGMSQEDNQLKLVPVTPGRDMVHHLLSVSTAEGTEENLSETSVAGFIVVTSVDVEHQVFTVLSPAPRPLPKNFLLIMDIRFMDLK | soluble
7 | MGSDKIHHHHHHMPKVEIAPSEIKIPDNVLKAKLGFGGAEEIPEEFRKTVNRAYEELLDAAKPVVLWRDFEVDGSLSFDDMRLTGELATKHLSGSKIITVFLATLGKKVDEKIEEYFRKGEDLLAFFIDGIASEMVEYALRKVDAELRMKRSNLEGSFRISPGYGDLPLSLNKKIAEIFKEEVDVNVIEDSYVLVPRKTITAFVGWREKNEKQT | soluble
8 | MLTDLEKNAIRDHYQNIGKNLPGFRPRASQREMIAAVANAFSRTLAREEGGEPPKREGESIAVIEGPTGVGKSLAYLLAGGIMAQTRGKRLIVSSATVALQEQLVDRDLPFLVEKSGLELTFALAKGRGRYLCPYKLYRLTQSNAQQNLLGFEAPAVLWDSKPKPEELKLLRDIADEFSARRFNGDRDTWPEKIDDAIWLKVTNDRHGCLKTACPNRPECPFYLARDVLETVDVVVANHDLLLADISMGGGVILPAPENSFYCIDEAHHLPKKALSRFAAEHSWNIAVWTLEKLPQLTGKIAALTDKAELANLADEAAASLLDSLHEWQFHLAEEPSLSLGVSENDRRTNSEPTWLWEDGKIPEGLETTVSNTAIAARSLLKHVIGLNDALSAARREKEQDGALLDRLTSEFGLFIARIEQISAVWDLLSTVPLEGEEPLAKWITRRADDKNDYIFNASPISSASHLANSLWRRAAGAVLTSATLQSLGNFNLMLRQTGLQWLPETTTLALKSPFDFEKQGELYIPPIYASPKDPEAHTAAVIEWLPKLISPTEAIGTLVLFSSRKQMQDVALRLPGDYLPLLLVQGELPKAVLLQKHHRAIEEGKASIIFGLDSFAEGLDLPGTACVQVIIAKLPFAMPDNPIEKTQNRWIEQRGGNPFIEITVPEAGIKLIQAVGRLIRTEQDYGRVTILDNRIKTQRYGQQLLAGLPPFKRIG | not soluble
9 | AHHHHHHHRSDAAVIVVGAGPAGMMLAGELRLAGVEVVVLERLVERTGESRGLGFTARTMEVFDQRGILPRFGEVETSTQGHFGGLPIDFGVLEGAWQAAKTVPQSVTETHLEQWATGLGADIRRGHEVLSLTDDGAGVTVEVRGPEGKHTLRAAYLVGCDGGRSSVRKAAGFDFPGTAATMEMYLADIKGVELQPRMIGETLPGGMVMVGPLPGGITRIIVCERGTPPQRRETPPSWHEVADAWKRLTGDDIAHAEPVWVSAFGNATRQVTEYRRGRVILAGDSAHIHLPAGGQGMNTSIQDAVNLGWKLGAVVNGTATEELLDSYHSERHAVGKRLLMNTQAQGLLFLSGPEVQPLRDVLTELIQYGEVARHLAGMVSGLEITYDVGTGSHPLLGKRMPALELTTATRETSSTELLHTARGVLLDLADNPRLRARAAAWSDRVDIVTAVPGEVSATSGLRDTTAVLIRPDGHVAWAAPGSHHDLPMALERWFGAPLTG | soluble
10 | MKEDWYRKMYGPSASKTYETSLFNLITSEFGYIGGPDVVKLFTKKIVELNNQYYLREEFVRPGQMRWLVLKAGQKYSKSKKLSEMQLIPVTLTLINPEDIEDRITKVKKNELIEKLIVRLCNETKEQGGVLTETDIAILFRLSCTMISNHVTSYEKRTKKVIPRAGTEMDMGKSLTHKRLAFHNYKKKIPTSENARLIDHTPESVDRYIKDGTRIEKLYAAGYDEWNMAFFTGLPIYVVQEYVEIIKSYEKEKNDKKDIENQ | not soluble
